# Test results as given in patent publication US20200231654A1 (published 2020).
# Where a chain is given by its changes, count along the chain named.
# B1: active MMP-9-binding peptide M91014 (designed binder)
# chain: GSGMKETAAAKFERQHMDSPDLGTDDDDKAMADIGSANSDPQFGLFSKYRTPNCVMYKYAQCSHKYKPVCGSDMSTYANECTLCMKIREGGHNIKIIRNGPCGASAAA
# B2: active MMP-9-binding peptide M91004 (designed binder)
# chain: GSGMKETAAAKFERQHMDSPDLGTDDDDKAMADIGSANSDPQFGLFSKYRTPNCRQRKGPSCQMAFQPVCGSDMSTYANECTLCMKIREGGHNIKIIRNGPCGASAAA
# B3: active MMP-9-binding peptide M91001 (designed binder)
# chain: B2 chain with R55Q, Q56R, R57G, K58I, A65S, F66Y, Q67K
# B4: active MMP-9-binding peptide M91005 (designed binder)
# chain: B2 chain with Q56K, K58G, A65S, F66Y, Q67N
# B5: active MMP-9-binding peptide M91012 (designed binder)
# chain: B2 chain with Q56V, K58G, A65S, Q67N
# B6: active MMP-9-binding peptide M91002 (designed binder)
# chain: B2 chain with Q56T, R57G, K58R, S61A, A65G
# B7: active MMP-9-binding peptide M91011 (designed binder)
# chain: B1 chain with V55M, Y66S, K67Q
# B8: active MMP-9-binding peptide M91010 (designed binder)
# chain: B2 chain with Q56K, R57V, K58G, G59E, S61A, A65S, Q67N
# Biological target: MMP-12 (catalytic domain) (human), (recombinant) (human, UniProt P39900 106-263)
# Assay: enzyme inhibition
# Sequence of MMP-12 (catalytic domain) (human), (recombinant) (P39900 106-263): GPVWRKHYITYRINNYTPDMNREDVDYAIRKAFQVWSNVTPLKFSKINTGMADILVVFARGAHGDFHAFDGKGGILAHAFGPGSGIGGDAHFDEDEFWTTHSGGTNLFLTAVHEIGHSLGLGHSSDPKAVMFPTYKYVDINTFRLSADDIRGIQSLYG
row,Binder,IC50 [nM]
1,B1,> 1000
2,B2,> 1000
3,B3,> 1000
4,B4,> 1000
5,B5,> 1000
6,B6,> 1000
7,B7,> 1000
8,B8,> 1000

# Biological target: T1, MMP-2, active, Human, Recombinant, CHO Cells (human, UniProt P08253 110-660)
# T1 chain: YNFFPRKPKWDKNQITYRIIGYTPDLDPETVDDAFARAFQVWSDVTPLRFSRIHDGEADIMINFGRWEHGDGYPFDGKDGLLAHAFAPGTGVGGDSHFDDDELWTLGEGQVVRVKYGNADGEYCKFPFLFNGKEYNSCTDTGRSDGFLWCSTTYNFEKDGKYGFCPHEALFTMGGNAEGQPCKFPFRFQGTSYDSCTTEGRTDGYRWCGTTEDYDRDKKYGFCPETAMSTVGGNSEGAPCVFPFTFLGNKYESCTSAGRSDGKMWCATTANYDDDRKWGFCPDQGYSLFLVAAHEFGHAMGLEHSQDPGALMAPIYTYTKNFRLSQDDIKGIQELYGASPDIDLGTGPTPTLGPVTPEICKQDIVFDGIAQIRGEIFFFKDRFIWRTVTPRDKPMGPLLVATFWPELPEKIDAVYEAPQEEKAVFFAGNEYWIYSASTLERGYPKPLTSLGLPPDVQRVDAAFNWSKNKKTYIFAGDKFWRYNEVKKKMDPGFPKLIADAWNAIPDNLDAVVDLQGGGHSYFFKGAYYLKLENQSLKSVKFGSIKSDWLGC
# Assay: enzyme inhibition
row,Binder,IC50 [nM]
1,B1,> 1000
2,B2,> 1000
3,B3,> 1000
4,B4,> 1000
5,B5,> 1000
6,B6,> 1000
7,B7,> 1000
8,B8,> 1000

# Biological target: APMA-activated human MMP-13 enzyme active domain (human, UniProt P45452 104-274)
# Assay: enzyme inhibition
row,Binder,IC50 [nM]
1,B1,> 1000
2,B2,> 1000
3,B3,> 1000
4,B4,> 1000
5,B5,> 1000
6,B6,> 1000
7,B7,> 1000
8,B8,> 1000

# Biological target: human MMP-3 activated by APMA (human, UniProt P08254 100-477)
# Assay: enzyme inhibition
# Sequence of human MMP-3 activated by APMA (P08254 100-477): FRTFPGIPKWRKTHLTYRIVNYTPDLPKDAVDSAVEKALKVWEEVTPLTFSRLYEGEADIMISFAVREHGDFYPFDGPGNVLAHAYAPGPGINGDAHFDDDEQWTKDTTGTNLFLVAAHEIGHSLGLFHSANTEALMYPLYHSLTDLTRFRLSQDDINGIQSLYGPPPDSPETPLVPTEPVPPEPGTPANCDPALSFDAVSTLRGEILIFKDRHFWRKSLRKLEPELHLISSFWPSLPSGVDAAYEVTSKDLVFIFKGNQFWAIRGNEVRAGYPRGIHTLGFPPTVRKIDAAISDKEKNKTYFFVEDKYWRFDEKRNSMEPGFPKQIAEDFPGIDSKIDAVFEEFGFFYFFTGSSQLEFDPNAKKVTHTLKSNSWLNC
row,Binder,IC50 [nM]
1,B1,> 1000
2,B2,> 1000
3,B3,> 1000
4,B4,> 1000
5,B5,> 1000
6,B6,> 1000
7,B7,> 1000
8,B8,> 1000

# Biological target: MMP-10 (catalytic domain) (human), (recombinant) (human, UniProt P09238 99-266)
# Assay: enzyme inhibition
# Sequence of MMP-10 (catalytic domain) (human), (recombinant) (P09238 99-266): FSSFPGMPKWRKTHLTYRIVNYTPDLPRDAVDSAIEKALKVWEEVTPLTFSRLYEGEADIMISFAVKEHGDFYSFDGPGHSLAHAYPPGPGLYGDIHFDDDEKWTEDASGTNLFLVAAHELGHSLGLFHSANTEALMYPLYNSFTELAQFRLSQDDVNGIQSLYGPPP
row,Binder,IC50 [nM]
1,B1,> 1000
2,B2,> 1000
3,B3,> 1000
4,B4,> 1000
5,B5,> 1000
6,B6,> 1000
7,B7,> 1000
8,B8,> 1000

# Biological target: T2, MMP-7 (catalytic domain) (human), (recombinant) (human, UniProt P09237 95-267)
# T2 chain: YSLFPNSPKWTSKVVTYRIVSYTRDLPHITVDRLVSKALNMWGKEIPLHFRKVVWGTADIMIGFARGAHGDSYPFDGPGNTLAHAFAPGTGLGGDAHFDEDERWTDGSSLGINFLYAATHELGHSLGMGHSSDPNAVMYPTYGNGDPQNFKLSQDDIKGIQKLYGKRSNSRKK
# Assay: enzyme inhibition
row,Binder,IC50 [nM]
1,B1,> 1000
2,B2,> 1000
3,B3,> 1000
4,B4,> 1000
5,B5,> 1000
6,B6,> 1000
7,B7,> 1000
8,B8,> 1000

# Biological target: T3, APMA-activated human MMP-1 enzyme active domain (human, UniProt P03956 100-269)
# T3 chain: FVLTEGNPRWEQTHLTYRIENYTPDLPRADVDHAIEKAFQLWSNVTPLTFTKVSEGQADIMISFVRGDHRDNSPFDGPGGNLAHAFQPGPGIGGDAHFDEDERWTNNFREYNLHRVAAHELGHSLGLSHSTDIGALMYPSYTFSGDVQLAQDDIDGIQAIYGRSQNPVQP
# Assay: enzyme inhibition
row,Binder,IC50 [nM]
1,B1,> 1000
2,B2,> 1000
3,B3,> 1000
4,B4,> 1000
5,B5,> 1000
6,B6,> 1000
7,B7,> 1000
8,B8,> 1000

# Biological target: MT2-MMP, Catalytic Domain, Human, Recombinant, E. coli (human, UniProt P51511 132-304)
# Assay: enzyme inhibition
# Sequence of MT2-MMP, Catalytic Domain, Human, Recombinant, E. coli (P51511 132-304): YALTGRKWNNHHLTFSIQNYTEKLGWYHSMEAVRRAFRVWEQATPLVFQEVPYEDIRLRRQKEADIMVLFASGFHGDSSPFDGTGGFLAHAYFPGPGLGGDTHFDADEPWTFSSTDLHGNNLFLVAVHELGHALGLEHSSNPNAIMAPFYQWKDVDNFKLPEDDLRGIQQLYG
row,Binder,IC50 [nM]
1,B1,> 1000
2,B2,> 1000
3,B3,> 1000
4,B4,> 1000
5,B5,> 1000
6,B6,> 1000
7,B7,> 1000
8,B8,> 1000

# Biological target: T4, Recombinant Human MMP-17 Protein, CF (human, UniProt Q9ULZ9 36-565)
# T4 chain: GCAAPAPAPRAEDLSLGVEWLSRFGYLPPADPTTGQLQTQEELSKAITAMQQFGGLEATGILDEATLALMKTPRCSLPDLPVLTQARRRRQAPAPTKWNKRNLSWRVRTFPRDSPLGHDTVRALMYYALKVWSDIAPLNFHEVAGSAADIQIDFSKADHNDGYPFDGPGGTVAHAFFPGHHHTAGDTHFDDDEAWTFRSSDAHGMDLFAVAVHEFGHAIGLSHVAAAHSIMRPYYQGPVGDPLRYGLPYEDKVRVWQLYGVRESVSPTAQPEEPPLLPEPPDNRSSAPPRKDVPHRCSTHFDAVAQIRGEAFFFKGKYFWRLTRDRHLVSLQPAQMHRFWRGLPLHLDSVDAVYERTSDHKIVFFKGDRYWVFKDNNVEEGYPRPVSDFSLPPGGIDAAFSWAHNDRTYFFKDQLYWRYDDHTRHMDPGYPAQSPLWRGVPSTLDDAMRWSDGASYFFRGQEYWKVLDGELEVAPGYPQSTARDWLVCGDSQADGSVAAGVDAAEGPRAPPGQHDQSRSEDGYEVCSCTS
# Assay: enzyme inhibition
row,Binder,IC50 [nM]
1,B1,> 1000
2,B2,> 1000
3,B3,> 1000
4,B4,> 1000
5,B5,> 1000
6,B6,> 1000
7,B7,> 1000
8,B8,> 1000

# Biological target: T5, ADAM17 (catalytic domain) (human), (recombinant) (His-tag) (human, UniProt P78536 215-477)
# T5 chain: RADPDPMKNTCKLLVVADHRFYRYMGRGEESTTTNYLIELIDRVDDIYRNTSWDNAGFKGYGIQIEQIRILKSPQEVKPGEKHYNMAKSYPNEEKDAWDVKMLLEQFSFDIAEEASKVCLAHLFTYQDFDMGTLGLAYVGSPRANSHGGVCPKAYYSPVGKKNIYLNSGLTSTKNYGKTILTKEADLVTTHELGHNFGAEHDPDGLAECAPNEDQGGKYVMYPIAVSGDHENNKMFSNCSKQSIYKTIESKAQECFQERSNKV
# Assay: enzyme inhibition
row,Binder,IC50 [nM]
1,B1,> 1000
2,B2,> 1000
3,B3,> 1000
4,B4,> 1000
5,B5,> 1000
6,B6,> 1000
7,B7,> 1000
8,B8,> 1000

# Biological target: APMA-activated human MMP-8 enzyme active domain (human, UniProt P22894 101-262)
# Assay: enzyme inhibition
# Sequence of APMA-activated human MMP-8 enzyme active domain (P22894 101-262): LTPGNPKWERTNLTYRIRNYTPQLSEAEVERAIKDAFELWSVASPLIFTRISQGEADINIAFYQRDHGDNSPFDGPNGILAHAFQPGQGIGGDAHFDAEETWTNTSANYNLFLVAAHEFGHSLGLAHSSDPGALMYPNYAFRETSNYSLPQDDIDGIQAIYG
row,Binder,IC50 [nM]
1,B1,> 1000
2,B2,> 1000
3,B3,> 1000
4,B4,> 1000
5,B5,> 1000
6,B6,> 1000
7,B7,> 1000
8,B8,> 1000

# Biological target: active mMMP-9(cat)_FLAG_Avi (UniProt P41245 108-450)
# Assay: enzyme inhibition; substrate peptide
# Sequence of active mMMP-9(cat)_FLAG_Avi (P41245 other isoform, or with tags, fused parts or gaps): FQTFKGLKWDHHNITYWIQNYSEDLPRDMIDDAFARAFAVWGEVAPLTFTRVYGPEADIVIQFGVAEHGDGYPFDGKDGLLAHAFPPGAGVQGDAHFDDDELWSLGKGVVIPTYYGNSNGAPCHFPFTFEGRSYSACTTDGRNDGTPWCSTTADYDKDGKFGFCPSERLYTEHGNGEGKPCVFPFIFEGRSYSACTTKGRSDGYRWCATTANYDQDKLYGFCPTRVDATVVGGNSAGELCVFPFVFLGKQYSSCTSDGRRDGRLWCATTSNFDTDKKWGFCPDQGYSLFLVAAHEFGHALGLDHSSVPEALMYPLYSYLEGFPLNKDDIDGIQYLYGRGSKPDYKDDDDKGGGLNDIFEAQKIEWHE
row,Binder,IC50 [nM]
1,B1,9.2
2,B2,7.1
3,B3,4.1
4,B4,8.4
5,B5,7.8
6,B6,5.1
7,B7,21
8,B8,5

# Biological target: active hMMP-9(cat)_D185A (UniProt P14780 107-449)
# Assay: substrate peptide degradation inhibition
# Sequence of active hMMP-9(cat)_D185A (P14780 107-449 D185A): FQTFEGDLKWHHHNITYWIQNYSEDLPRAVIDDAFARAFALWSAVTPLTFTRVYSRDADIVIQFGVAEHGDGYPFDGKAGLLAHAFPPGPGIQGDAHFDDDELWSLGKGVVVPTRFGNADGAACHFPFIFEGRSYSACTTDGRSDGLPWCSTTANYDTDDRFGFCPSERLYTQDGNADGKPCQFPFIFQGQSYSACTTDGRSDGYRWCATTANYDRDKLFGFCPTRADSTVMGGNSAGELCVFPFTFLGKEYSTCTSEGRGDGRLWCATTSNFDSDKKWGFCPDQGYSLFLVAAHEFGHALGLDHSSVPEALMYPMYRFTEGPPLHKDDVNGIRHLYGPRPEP
row,Binder,IC50 [nM]
1,B4,29
2,B7,310

# Biological target: active hMMP-9(cat)_P193A (UniProt P14780 107-449)
# Assay: substrate peptide degradation inhibition
# Sequence of active hMMP-9(cat)_P193A (P14780 107-449 P193A): as the sequence (P14780 107-449 D185A) above, with A79D, P87A counted along it
row,Binder,IC50 [nM]
1,B4,13
2,B7,110

# Biological target: active hMMP-9(cat)_Q199G (UniProt P14780 107-449)
# Assay: substrate peptide degradation inhibition
# Sequence of active hMMP-9(cat)_Q199G (P14780 107-449 Q199G): as the sequence (P14780 107-449 D185A) above, with A79D, Q93G counted along it
row,Binder,IC50 [nM]
1,B4,40
2,B7,22
